Measured values published in the nanobody polyreactivity screen of Harvey et al. (2022).

Test: yeast display, Sf9 membrane polyspecificity reagent, FACS + sequencing; frameworks hold sequencing errors
In short: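 Nanobodies came from a synthetic yeast display library in Saccharomyces cerevisiae BJ5465, induced with galactose for 36–48 hours and stained for 1 hour at 4 °C with 10% biotinylated, detergent-solubilized Sf9 membrane reagent. Cells were enriched on streptavidin microbeads and then FACS-sorted, with low and high (top ~1%) gates set on anti-HA fluorescence for expression and streptavidin fluorescence for reagent binding. Each polyreactivity label reflects the gate a clone came from. Genes were amplified by colony PCR, sequenced by MiSeq 2 × 250 and filtered by CDR length.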

| Sequence | polyreactivity (PSR sort gate) |
| --- | --- |
| HVQLVESVGGLVQAGGSLRLSCAASGSTFFYNAMAWYRQAPGKERELVAAITVTGNSTYYADSVKGRFTISRDNAKNTVYLQMNSLKPEDTAVYYCNTSLKRRRLRFNYWGQGTQVTVSS | low polyreactivity |
| HVQLVETGGGLVQAGGSLRLSCAASGRTFDSYTMGWYRQAPGKERELVADITFTGGSTYYADSVKGRFTISRDNAKNTVYLQMNSLKPEATAVYYCNADREYKWYFRYDYWGQGTQVTVSS | low polyreactivity |
| HVQLVQSGGGLVQAGGSLRLSCAASVYTFVYYAIGWYRQATGKERELVAAITSRAGRTYYADSVKGRFTISRDNAKNTVYLQMNSLKPEDTAVYYCNAASTKITRFDYWGQGTQVTVSS | high polyreactivity |
| IILPGGRILLSCAASGRTFSGYGLGWYRQAPVKERELIADITSGGSTYYADSVKGRFTISRDNAKNTVYLQMNILIPVDTAVYYCAAERQIRSFWSSRTYEFGYWGQGTQVNVSS | low polyreactivity |
| KGQLVESGGGLVQAGGSLRLSCAASGSIFGENAMGWYRQAPGKERELVAAITSSGSTYYADSVKGRFTISRANAKNTVYLQMNSLKPEDTAVYYCAKVSVLRMDYWGQGTQVTVSS | low polyreactivity |
| KLQLVESGGGLVQAGGSLRLSCADSGRIFQGNAMGWYRQAPGKERELVAAITYSGRSTFYADSVKGRFTISRDNAKNTVYLQMNRLKPEDTAFYYCAARQYWTTDLPFQRYYYWGQGTQVTVSS | low polyreactivity |
| KVLLVESGGGLVQAGGSLRLSCAASGSIFHGNAMGWYRQAPGKERELVATISSGGSTYYADSVKGLFTISRDNAKNTVDLQMNSLKPEDTAVYYCAAERFWPYKSYYWGQGTQVTVSS | low polyreactivity |
| KVQIVESGGGLVQAGGSLRLSCAASGRTFVVNGMGRYRQAPGKDRELVAAINTSGGSTHYADSVKGRITISRDNAKNTVYLQMNILKPEDTAVYYCAAVGYWRDYSGYWDYYYIYDYWGQGTQVNVSS | low polyreactivity |
| KVQLEESGGGLVQSGGILRLSCAASGSTLWSNTMGWYRQEQGKERELVDAISSGGGSTYADSVKGRFTISRDNAKNTVYLQMNSLKPEDTAVFYCAASAYYYRHSSWHRSDYWGQGTQVTVSS | high polyreactivity |
| KVQLVESGGGLVQAGGSLLLSCAASVSNYTLNAMGWYRQAPGKERVLVAAISLSGGSTYYADSVKGRFTISRDNAKNTVYLQMNSLKPEDTAVYYCNTPPSRYVRYGIYRYDYWGQGTQVTVSS | high polyreactivity |
| KVQLVESGGGLVQAGGSLRISCAASGGIFAYNAMGWYRQAPGKEMELVASITSGGNTYYADSVKGRFTISRDNAKNTFYLQMNSLKPEDTAVYYCNARFYRSWRRYSREPGYNYWGQGTQVTVSS | high polyreactivity |
| KVQLVESGGGLVQAGGSLRISCAASGIIFLGYAMGWYRQAPGKERELVAGISSRGGSTYYADSVKGRFTISRDNAKNTVYLQMNSLKPADSAVYYCAAVSRGSGRDYWGQGTQVTVSS | high polyreactivity |
| KVQLVESGGGLVQAGGSLRISCAASGITFNPYAMGWYRQAAGKERELVAAISRRGGSTNYADSVKGRFTISRDNAKNTVYLQMNSLKPEDTAVYDCNRDYPIGYRHDPVYYWGQGTQVTVSS | high polyreactivity |
| KVQLVESGGGLVQAGGSLRLSCAASGFIFYRNTMGWYRQAPGKEREFVAAIRWRGGSTYYADSVKGRFTISRDNAKNTVYLQMNSLKPEDTAVYYCAADTRPGYSGFEYWGQGTQVTVSS | high polyreactivity |
| KVQLVESGGGLVQAGGSLRLSCAASGFTFEGYAMGWYRQAPGKEMELVAAISSNGGRTYYADSVKGRFTISRDNAKNTVYLQMNSLKPEDTAVYYCNARRAYSGPDYDYYHGRRYDYWGQGTQVTVSS | low polyreactivity |
| KVQLVESGGGLVQAGGSLRLSCAASGGIFYYYAMGWYRQAPGKERELVAAISSGGGTNYADSVKGRFTISRDNAKNTVYLQMNSVKPEDTAVYYCAADQGRDTGYDYWGQGTQVTVSS | low polyreactivity |
| KVQLVESGGGLVQAGGSLRLSCAASGLIFPAYTIGWYRQAPGKEREMVAAISRSGGSTYYADSVKGRFTISRDNAKYTVYLEMNSLKPEDTALYYCAAGYPGYDSYYKFYYWGQGTQVTVSS | high polyreactivity |
| KVQLVESGGGLVQAGGSLRLSCAASGLILRRYAMGWSRQAPGKEREFVARITWSGSRTYYADSVKGRFTISRDYGKNTVYLQMKSLKPEDSAFYYCAAVGRLARRDYWGQGTQVSVSS | high polyreactivity |
| KVQLVESGGGLVQAGGSLRLSCAASGLTFSFYAMGWYRQAPGKERELVAAITYSGDSTYYADSVKGRFTISRDNAKNTVYLQLNSLKPEDTAVYYCAAYVYQTPHSLHIYEYWGQGTQVTVSS | low polyreactivity |
| KVQLVESGGGLVQAGGSLRLSCAASGRIFYYNAMGWYRQAPGKERELVAVITGGGSTNYADSVKGRFTISRDNAKNTVYLQMNSLKPEDTAGYYCAARRAWGTKYHGYDYWGQGTQVNVSS | low polyreactivity |
| KVQLVESGGGLVQAGGSLRLSCAASGSIFTYYAMGWDRQAPGKERELVAAISIGGRTDYADSVKGRFTISRDNAKNTVSLQMNSLKPEDTAVYYCVAKGHLDSGGYEYYYWRQGTQVTVSS | low polyreactivity |
| KVQLVESGGGLVQAGGSLRLSCAASGSTFSLYAMGWYRQAPGKERELVASIRWSGGRTYYADSVKGRFTISRDNAKNTVYLQMKSLKPEDTAVYYCAAAWRYGYGYWGQGTQVTVSS | high polyreactivity |

| Sequence | polyreactivity (PSR sort gate) |
| --- | --- |
| KVQLVESGGGLVQAGGSLRLSCAASGYIVSYYDMGWYRQAPGKERELVAAITAGVAGTYYADSVKGRLTISRDNAKNSVYLQMNSLTPEDTAVFYCAADRYITTVVRMYYSGQGTQVTVSS | low polyreactivity |
| KVQLVESGGGLVQAGGSLRLSCADSGIFRYYAMGWYRQAPGKEREFVAAMTRGGSTNYADSVKGRFTISRDNAKNSVYLQMNSLKPEDTEVYYCARDGYREFDWGQGTQVTVSS | high polyreactivity |
| KVQLVESGGGLVQAGGSLRLSCPASGITFYRYVMGWYRQAPGTERELVAAISSGGRTYYADSVKGRFTISRDNAKNTVYLQMNSLKPEDNAVYYCNRAAFQTRYESWGQGTQVTVSS | high polyreactivity |
| KVQLVESGRGLVQAGGSLLLICAASGSTFVDYAMGWYRQAPGKERELVAGINVSGGSTYYSDYVKGSFTISRDNSNNPVYLQMNSLNPEDTAVYYCAKVVSNRLALPAWDYNYWGQGTKVTVSS | low polyreactivity |
| KVQLVESGVGLVQAGGSLRLSCAPSGSIFKYYAMGWYRQAPGKERELVAAITDRGSSTYYADSVKGRFTISRDNAKTTVYLQMNSLKPEDTAVYYCAAETYVCIYWPYVKYYYWGQGTQVNVSS | high polyreactivity |
| KVQLVESVGGLVQAGGSLRLSCAASGRIFGVNAMGWYRQAPGKERELVAAIRSGDSTNYADSVKGRFTISRDNAKNTVYLQMNSLKPEDTAVYYCATDLYFDLRYDYWGQGTQVTVSS | low polyreactivity |
| KVQVVESGGGFVQAGGSLGLSCAASGRIFGVYAMGWYTQAPGKERELVAAINYSGTRTYYADSVKGRFTISRDNGKNTVYLQMNSLKPEDSAVYYCGARRGSYSVTEYWGQGTQVNVSS | high polyreactivity |
| LVHLQESGGGLVLAGGGLRLSCAASGNIFTYVIMGWYRQPAGKERELVAAITYGTITNYADSVKGPFTISRDNAKNTVYLQMNCLKPEDTAVYHCAVQSTRIVPRHYYCGQGTQVTVSS | high polyreactivity |
| LVQHVESGGGIVQAGGSLRLTCAASGSIFASYAMGWYRLAPGKEREFVAAISRRSGSTYYSDSVKGRFTISRDYAKNTVYLQLKSLKPEDTAVYDCAGALYYGYDHYNYWGQGTQVTVSS | high polyreactivity |
| LVQHVESGGGLVKAGGSLRLTCSASGITFARYAMGWYRQAPGNERELVAAISRSVGSTYADSVKGRFTTSRDNAKNTVYLKMNSLKPEDTAVYYCHARYKSRLYPRYDYWGQGTQVTVSS | high polyreactivity |
| LVQLLESGGGLVQAGGSLRLSCAASGRIFTGYALGWDRQAPGKDRELVASITWRGASTYYADSVKGRFTISRDNAKTTVFLQKNCLNPEDTAVDYCNVGASARKAYEYWGQGTQVTVSS | high polyreactivity |
| LVQLQESAGGLVQAGGSLRLSCAASGSISVTRAMCWYRQAPGNERELVASTTGGSNNADSVNGRFTISRDNAKNTVYLQMNSLKPEDTAVYYCAAAVGVGRSGGTYDYWGQGTQVTVSS | low polyreactivity |
| LVQLQESGGGLVQAGGSLRLSCAASGTISQGGYMGWYRQAPGKERELVASINVGGSTNYADSVKGRFTISRDNAKNTVYLQMNSLKPEDNAVYYCAVWGRNRLQLSYWGQGTQVTVSS | low polyreactivity |
| LVQLVESGGGLVQAGGSLRLICAAYGSIFALNSLGWYSQAPGKERELVAAISRGDGTKYEHTVKGRFTISRDNAKTTVYLQMTSLKPEYTAVYYCAKDYWFRWRWPYNHWGLGTQVTVSS | low polyreactivity |
| LVQLVESGGGLVQAGGSLRLSCAASGRIFLKYAMGWYRQSPGKERELVAAISRRGASTYYADSVKGRFTISRDYGKNSVYLLMKSLKPDDTAVYYCNARTSSGMDYWGQGTQVTVSS | high polyreactivity |
| LVQLVESGGGLVQAGGSLRLSCAASGSIFRRYAMGWYRQAPGKERELVAAISRNSGRTYYADSVKGRFTISRDNAKNTVYLQTNSLKPEDTAVYYCAKLTLSSRWYYIYDYWGQGTQVTVSS | high polyreactivity |
| PVQLQESGGGLVQAGGSLRLSCAASGNIFDADIMGWYRQAPGKERELVACIADGGSTNYADSVKGRFTISRDNAKNTVYLQMNSLKPEDTAVYYCAAIAYPYIPNCFDYDSDYFFRGQGTQVTVSS | low polyreactivity |
| PVQLVESGGGLVEAGGSLLLSCAASGSTFREYTMGWYRQAPGKERELVAAITNSGGSTYYADSVKGRFTISRDIAKYTVYLQMNSLKPDDTSVYYFAAEVGIVDYDYWGQGTKVTVSS | low polyreactivity |
| PVQLVESGGGLVQAGGRLRLSCASSGLTFYYYAMGWYLQSPGKESELVAALSRSGGSTYYADSVKGRFTISRDNAQNTVYLQMISLKPEDTAVYYCAAREPYEVLLYYYEDYYWGQGTQVTVSS | high polyreactivity |
| PVQLVESGGGLVQAGGSLRLSCAASGFTFDENAMGWYRQAPGITYSGASTYYADSVKGPYTISRANAQNTVYLQMNSLKPEDTAVYYCAAEVVAQMNYWGQGTQVTVSS | low polyreactivity |
| PVQLVESGGGLVQAGGSLRLSCAASGITFYRYMGWYRQAPGKERELVASITGRGGSTYYADSVKGRFTISRDNAKNTVYLQMNSLKPEDTAVYYCAAVFPTKSSTWYDFWGEGTQVTVSS | high polyreactivity |
